Target: Cy-5-labelled H2A/H2B dimer, wild type (UniProt P02281)
Assay: fluorescence polarisation

- Kd: 1000 nM
Substance: RNF168 RING domain (residues 1–189) (from UniProt Q8IYW5 1-189) (domain or fragment)
